Test results as given in the Immune Epitope Database (IEDB).

Tests used:
[1] = biological target: HLA-A*02:01; test: IEDB peptide-MHC binding, purified MHC/competitive/fluorescence; filed as Kd, often an IC50 or EC50 that approximates it; ≥ and ≤ were set here for values at or beyond the usual limits of such assays
[2] = biological target: HLA-A*02:03; test: as above
[3] = biological target: HLA-A*02:11; test: as above
[4] = biological target: HLA-A*02:12; test: as above
[5] = biological target: HLA-A*02:16; test: as above
[6] = biological target: HLA-A*02:19; test: as above
[7] = biological target: HLA-A*03:01; test: as above
[8] = biological target: HLA-A*26:01; test: as above
[9] = biological target: HLA-A*68:02; test: as above
[10] = biological target: HLA-A*69:01; test: as above
[11] = biological target: HLA-B*15:01; test: as above
[12] = biological target: HLA-B*18:01; test: as above
[13] = biological target: HLA-B*27:03; test: as above
[14] = biological target: HLA-B*39:01; test: as above
[15] = biological target: HLA-B*46:01; test: as above
[16] = biological target: HLA-B*51:01; test: as above
[17] = biological target: HLA-B*57:01; test: as above
[18] = biological target: HLA-B*15:17; test: as above; details: source organism: Vibrio vulnificus YJ016
[19] = biological target: HLA-B*07:02; test: IEDB peptide-MHC binding, purified MHC/competitive/fluorescence; ≥ and ≤ were set here for values at or beyond the usual limits of such assays; details: source organism: Zaire ebolavirus
[20] = biological target: HLA-A*01:01; test: IEDB peptide-MHC binding, purified MHC/direct/fluorescence; filed as Kd, often an IC50 or EC50 that approximates it; ≥ and ≤ were set here for values at or beyond the usual limits of such assays
[21] = biological target: HLA-A*02:01; test: as above
[22] = biological target: HLA-A*29:02; test: as above; details: source organism: Entamoeba histolytica HM-1:IMSS
[23] = biological target: HLA-A*30:01; test: as above
[24] = biological target: HLA-A*69:01; test: as above
[25] = biological target: HLA-B*07:02; test: as above
[26] = biological target: HLA-B*15:01; test: as above
[27] = biological target: HLA-B*18:01; test: as above; details: source organism: Entamoeba histolytica HM-1:IMSS
[28] = biological target: HLA-B*40:01; test: as above
[29] = biological target: HLA-B*44:02; test: as above
[30] = biological target: HLA-B*57:01; test: as above; details: source organism: Entamoeba histolytica HM-1:IMSS
[31] = biological target: HLA-B*58:01; test: as above
[32] = biological target: HLA-A*29:02; test: IEDB peptide-MHC binding, purified MHC/competitive/fluorescence; filed as Kd, often an IC50 or EC50 that approximates it; ≥ and ≤ were set here for values at or beyond the usual limits of such assays
[33] = biological target: HLA-A*02:01; test: IEDB peptide-MHC binding, purified MHC/competitive/fluorescence; ≥ and ≤ were set here for values at or beyond the usual limits of such assays; details: source organism: Zaire ebolavirus
[34] = biological target: HLA-A*24:02; test: as above; details: source organism: Zaire ebolavirus
[35] = biological target: HLA-A*03:01; test: IEDB peptide-MHC binding, purified MHC/direct/fluorescence; filed as Kd, often an IC50 or EC50 that approximates it; ≥ and ≤ were set here for values at or beyond the usual limits of such assays
[36] = biological target: HLA-A*11:01; test: as above
[37] = biological target: HLA-A*24:03; test: as above
[38] = biological target: HLA-A*26:01; test: as above
[39] = biological target: HLA-A*31:01; test: as above
[40] = biological target: HLA-B*08:01; test: as above
[41] = biological target: HLA-B*27:05; test: as above
[42] = source organism: Campylobacter jejuni subsp. jejuni NCTC 11168 = ATCC 700819
[43] = source organism: Vibrio vulnificus YJ016
[44] = source organism: Entamoeba histolytica HM-1:IMSS
[45] = source organism: Cryptosporidium parvum Iowa II
[46] = source organism: Rickettsia conorii
[47] = source organism: Rickettsia sibirica
[48] = source organism: Campylobacter jejuni
[49] = source organism: La Crosse virus

In the case of AELIDSFTW, the Kd [1, 42] is reported as no less than 20 µM, the Kd [2, 42] is reported as no less than 20 µM and the Kd [3, 42] is reported as no less than 20 µM. It also gave a Kd [4, 42] of no less than 20 µM, a Kd [5, 42] of no less than 20 µM and a Kd [6, 42] of no less than 20 µM. The Kd [7, 42] was no less than 20 µM, the Kd [8, 42] was no less than 20 µM and the Kd [9, 42] was no less than 20 µM. It also gave a Kd [10, 42] of no less than 20 µM, a Kd [11, 42] of no less than 20 µM and a Kd [12, 42] of 0.462 µM. It also gave a Kd [13, 42] of no less than 20 µM, a Kd [14, 42] of no less than 20 µM and a Kd [15, 42] of no less than 20 µM. For the same sequence, the Kd [16, 42] was no less than 20 µM and the Kd [17, 42] was no less than 20 µM.

With DFISMYFPW the Kd [1, 43] was no less than 20 µM, the Kd [2, 43] was no less than 20 µM and the Kd [3, 43] was no less than 20 µM. The Kd [4, 43] was no less than 20 µM, the Kd [5, 43] was no less than 20 µM and the Kd [6, 43] was no less than 20 µM. The Kd [7, 43] was no less than 20 µM, the Kd [8, 43] was no less than 20 µM and the Kd [9, 43] was no less than 20 µM. The Kd [10, 43] was no less than 20 µM, the Kd [11, 43] was no less than 20 µM and the Kd [18] was no less than 20 µM. It also gave a Kd [12, 43] of 0.946 µM, a Kd [13, 43] of no less than 20 µM and a Kd [14, 43] of no less than 20 µM. For the same sequence, the Kd [15, 43] was no less than 20 µM, the Kd [16, 43] was no less than 20 µM and the Kd [17, 43] was no less than 20 µM.

For ENTNTSKST, the IC50 [19] was no less than 200 µM.

Sequence ETMKPAAMV has a Kd [20, 44] of no less than 20 µM, a Kd [21, 44] of no less than 20 µM and a Kd [22] of no less than 20 µM. It also gave a Kd [23, 44] of no less than 20 µM, a Kd [24, 44] of 0.0015 µM and a Kd [25, 44] of no less than 20 µM. It also gave a Kd [26, 44] of no less than 20 µM, a Kd [27] of no less than 20 µM and a Kd [28, 44] of no less than 20 µM. For the same sequence, the Kd [29, 44] was no less than 20 µM, the Kd [30] was no less than 20 µM and the Kd [31, 44] was no less than 20 µM.

FLYPSWSLY was tested, and the Kd [1, 45] was 0.169 µM, the Kd [5, 45] was 0.101 µM and the Kd [6, 45] was no less than 20 µM. For the same sequence, the Kd [10, 45] was no less than 20 µM, the Kd [13, 45] was no less than 20 µM and the Kd [14, 45] was no less than 20 µM. For the same sequence, the Kd [17, 45] was no less than 20 µM.

KTRMEDYYL gave a Kd [1, 44] of no less than 20 µM, a Kd [2, 44] of no less than 20 µM and a Kd [4, 44] of no less than 20 µM. It also gave a Kd [6, 44] of no less than 20 µM, a Kd [7, 44] of no less than 20 µM and a Kd [8, 44] of no less than 20 µM. It also gave a Kd [32, 44] of no less than 20 µM, a Kd [11, 44] of no less than 20 µM and a Kd [12, 44] of no less than 20 µM. It also gave a Kd [13, 44] of no less than 20 µM, a Kd [14, 44] of no less than 20 µM and a Kd [15, 44] of no less than 20 µM. It also gave a Kd [16, 44] of no less than 20 µM and a Kd [17, 44] of 0.151 µM.

QWALLPYLF showed a Kd ([32]; source organism: Brucella canis ATCC 23365) of no more than 0.0001 µM.

In the case of RRTRREAIV, the IC50 [33] is reported as no less than 5060 µM, the IC50 [34] is reported as 63.3 µM and the IC50 [19] is reported as 37.7 µM.

In the case of RTGDIGCFK, the Kd [20, 46] is reported as no less than 20 µM, the Kd [21, 46] is reported as no less than 20 µM and the Kd [35, 47] is reported as 0.836 µM. The Kd [36, 47] was 0.0688 µM, the Kd [37, 46] was no less than 20 µM and the Kd [38, 46] was no less than 20 µM. It also gave a Kd [23, 47] of 0.0355 µM, a Kd [39, 47] of 0.223 µM and a Kd [24, 46] of no less than 20 µM. The Kd [25, 46] was no less than 20 µM, the Kd [40, 46] was no less than 20 µM and the Kd [26, 46] was no less than 20 µM. It also gave a Kd [41, 46] of no less than 20 µM, a Kd [28, 46] of no less than 20 µM and a Kd [29, 46] of no less than 20 µM. It also gave a Kd [31, 46] of no less than 20 µM.

Sequence SFGAGTLAK has a Kd [20, 48] of no less than 20 µM, a Kd [21, 48] of no less than 20 µM and a Kd [35, 48] of 1.97 µM. The Kd [36, 48] was 0.383 µM, the Kd [37, 48] was no less than 20 µM and the Kd [38, 48] was no less than 20 µM. The Kd [23, 48] was 0.0186 µM, the Kd [39, 48] was 3.9 µM and the Kd [24, 48] was no less than 20 µM. For the same sequence, the Kd [25, 48] was no less than 20 µM, the Kd [40, 48] was no less than 20 µM and the Kd [26, 48] was no less than 20 µM. For the same sequence, the Kd [41, 48] was no less than 20 µM, the Kd [28, 48] was no less than 20 µM and the Kd [29, 48] was no less than 20 µM. It also gave a Kd [31, 48] of no less than 20 µM.

In the case of YRKPSGGVF, the Kd [20, 49] is reported as no less than 20 µM, the Kd [21, 49] is reported as no less than 20 µM and the Kd [35, 49] is reported as no less than 20 µM. For the same sequence, the Kd [36, 49] was no less than 20 µM, the Kd [37, 49] was 4.78 µM and the Kd [38, 49] was no less than 20 µM. The Kd [23, 49] was no less than 20 µM, the Kd [39, 49] was no less than 20 µM and the Kd [24, 49] was no less than 20 µM. For the same sequence, the Kd [25, 49] was 6.06 µM, the Kd [40, 49] was 0.166 µM and the Kd [26, 49] was 0.797 µM. For the same sequence, the Kd [41, 49] was 0.232 µM, the Kd [28, 49] was no less than 20 µM and the Kd [29, 49] was no less than 20 µM. It also gave a Kd [31, 49] of no less than 20 µM.
